Consider one protein from article PMC7502447, “Characterization and functional analysis of two novel thermotolerant α-L-arabinofuranosidases belonging to glycoside hydrolase family 51 from Thielavia terrestris and family 62 from Eupenicillium parvum” (Applied Microbiology and Biotechnology, 2020).

Substrate in this data set: O=[N+]([O-])c1ccc(O[C@@H]2O[C@@H](CO)[C@H](O)[C@H]2O)cc1
Kind of data set: purified protein. Format: biochemical, Thermothielavioides terrestris. To be noted: standard conditions, sodium acetate buffer, optimum pH 5.0, 70 °C.

B1: TtABF51A (Thermothielavioides terrestris NRRL 8126) (protein)
chain: AVTLSVAKSGGNATSPYMYGIMFEDISHSGDGGLYAELIQNRAFQNGTLDAWSAVGGATLALDTSTPLSQALPRSVKVTGGQHTAGLKNSGFWGFDVKKSKKYTGSFYSYGEYSGRFTVSLVSNTTSEIFATTTVKSKSVAGRWTQHTFELRPTKDAPDISNSFVLEYKPTPHTELKFNLISLFPPTYKNRANGMRPELMEKLKELNPTYIRCPGGNNVEGNYAGNYWNWSATVGPLKDRPGRPGTWGYYNTDGLGLVEYMHWAEDLGMDVVLAVPAGLYLDGEVVSEADLAPFVQDALNELEFLMGDVSTPYGALRAKLGYPKPWKIKFVEIGNEDNLWGGLDSYKGYRFRMFYDAIKAKYPDIFIFSSTAEYMYKQSGRDYHEYTRPDYFVSQFGMFDNWTAGNPIMIGEFASIQNNTGKLEDTDWNAPKNPWSTWIGSVAEAVFLLGAERNSDRVWGVSFAPLLQNLNSYQWTPDLISFTADPADTTVSVSYPILSLFAKHPLTHTLPATAANGTSFGPAYWVAGRNDAAGTYLLKAAVYNSTGGAEVPFRVGFDGLSRGAPATLTVLTAPGGPFAHNTPANKNAVKTAVTQLRAGEGGVLEFSLPDLSVAVLEAKW
notes: full length 640 aa; predicted 20-aa signal peptide removed; C-terminal 6xHis; predicted N-terminal CBM4_9 kept; expressed in Trichoderma reesei D-86271
B1: the Km worked out at 300 ± 20 µM, the Vmax is 108 µmol/min/mg and the catalytic constant (kcat) is 123 ± 2.91 s⁻¹.

The term Km denotes the substrate concentration at which the rate is half of its maximum. As usually defined, the Vmax is the top rate of the reaction or transport when substrate is in excess. One may read the kcat as the number of substrate molecules converted per active site and unit of time at saturation.
